Laboratory results taken from the DeepSol protein solubility set.

Test: soluble on expression in E. coli; label from the status in PepcDB or PDB records

Sequence	soluble on expression in E. coli
LLVVGPKFIRANQEYTLVISNFNSQLSKVDLLLKLEGETDNGLSVLNVTKMVDVRRNMNRMINFNMPEDLTAGNYKITIDGQRGFSFHKEAELVYLSKSISGLIQVDKPVFKPGDTVNFRVIVLDTELKPPARVKSVYVTIRDPQRNVIRKWSTAKLYAGVFESDLQIAPTPMLGVWNISVEVEGEELVSKTFEVKEYVLSTFDVQVMPSVIPLEEHQAVNLTIEANYHFGKPVQGVAKVELYLDDDKLKLKKELTVYGKGQVELRFDNFAMDADQQDVPVKVSFVEQYTNRTVVKQSQITVYRYAYRVELIKESPQFRPGLPFKCALQFTHHDGTPAKGISGKVEVSDVRFETTTTSDNDGLIKLELQPSEGTEQLSIHFNAVDGFFFYEDVNKVETVTDAYIKLELKSPIKRNKLMRFMVTCTERMTFFVYYVMSKGNIIDAGFMRPNKQPKYLLQLNATEKMIPRAKILIATVAGRTVVYDFADLAFQELRNNFDLSIDEQEIKPGRQIELSMSGRPGAYVGLAAYDKALLLFNKNHDLFWEDIGQVFDGFHAINENEFDIFHSLGLFARTLDDILFDSANEKTGRNALQSGKPIGKLVSYRTNFQESWLWKNVSIGRSGSRKLIEVVPDTTTSWYLTGFSIDPVYGLGIIKKPIQFTTVQPFYIVENLPYSIKRGEAVVLQFTLFNNLGAEYIADVTLYNVANQTEFVGRPNTDLSYTKSVSVPPKVGVPISFLIKARKLGEMAVRVKASIMLGHETDALEKVIRVMPESLVQPRMDTRFFCFDDHKNQTFPINLDINKKADSGSTKIEFRLNPNLLTTVIKNLDHLLGVPTGCGEQNMVKFVPNILVLDYLHAIGSKEQHLIDKATNLLRQGYQNQMRYRQTDGSFGLWETTNGSVFLTAFVGTSMQTAVKYISDIDAAMVEKALDWLASKQHFSGRFDKAGAEYHKEMQGGLRNGVALTSYVLMALLENDIAKAKHAEVIQKGMTYLSNQFGSINNAYDLSIATYAMMLNGHTMKEEALNKLIDMSFIDADKNERFWNTTNPIETTAYALLSFVMAEKYTDGIPVMNWLVNQRYVTGSFPSTQDTFVGLKALTKMAEKISPSRNDYTVQLKYKKSAKYFKINSEQIDVENFVDIPEDTKKLEINVGGIGFGLLEVVYQFNLNLVNFENRFQLDLEKQNTGSDYELRLKVCASYIPQLTDRRSNMALIEVTLPSGYVVDRNPISEQTKVNPIQKTEIRYGGTSVVLYYDNMGSERNCFTLTAYRRFKVALKRPAYVVVYDYYNTNLNAIKVYEVDKQNLCEICDEEDCPAECGGHHHHHH	soluble
GIDIELQMLGERLLEGKIGSIVAIEPSTGEILCMVSAPTFDPRLMVGRQRGKNHLELARDSWKPLLNRSIMGQFPPGSTFKTTQALTFLQEGIITPQTAYSCYHGFVYAGLRVGCHSHGSPLPLVPAIATSCNGYFCWGLFHMIGAKKKYGSVQTAMNTWRDYMVSMGFGYPLGVDLPGEKRGMIPNAAYYDKNYRGSWNGLTIISISIGQGEVTATPLQIANLGATIANRGYYITPHVVKEVEDEPLDTLYTTKRYTKVSREHYQTVVEGMRSAVLGGTCRNANIPGIEVCGKTGTAQNRGKDHSAFMGFAPMNDPKIAVVVYVENGGWGATYGVPIGALIMEKYLKGELSPESEAKAAEIQNRRIDYGIHER	not soluble
MKIGIVGLGRVGSSTAFALLMKGFAREMVLIDVDKKRAEGDALDLIHGTPFTRRANIYAGDYADLKGSDVVIVAAGVPQKPGETRLQLLGRNARVMKEIARNVSKYAPDSIVIVVTNPVDVLTYFFLKESGMDPRKVFGSGTVLDTARLRTLIAQHCGFSPRSVHVYVIGEHGDSEVPVWSGAMIGGIPLQNMCQVCQKCDSKILENFAEKTKRAAYEIIERKGATHYAIALAVADIVESIFFDEKRVLTLSVYLEDYLGVKDLCISVPVTLGKHGVERILELNLNEEELEAFRKSASILKNAINEITAEENKHQNTSG	soluble
MGSDKIHHHHHHMTKQLLVLQSDFGISDGAVSAMYGVINSVSKDLQIYDLTHQIPQFNIWEASYRLLQTVTYWPEDTIFVSIVDPGVGSKRRSVVVLTEDGHYIITPDNGTLTHIAHYGTIKEVRLIDEEKNRLPKSGASHTFHGRDIFAYTAARLAAGVINFEDIGPSATPDSIVSLSLSDSYLEGEQAFGTIDIIDRPFGNLWTNIRRTDFLQLGANYGDSIEVLIKHHDRVVYKNFVTYSRSFADLRIGEALIYVNSLDNLGLGINQGSFVDAYSVGTGTSWKVTLKKV	not soluble
WGYECIGMFRSYQEINEYFDKYSITKYLGNTKENVHPGMLIYKDVRGQYDESTGTFGPADGIVDEQDYIKISHRASNPYGGTLNFGFSYKDFSISAQFGASWGAYSLVPTTMRKESYSEYSNVSAMWKDMFVYEDIYDANNIVTVAQNRNAKYPNIRYSSVNGAPSTFWKVSAATVQLRNMTVAYALPKEWLKIIGISSCRFNLTCQNVFNFLNPYPEGAWASWAGSYGYYPNLRKFTLGVNVSF	not soluble
MVRLTTELFAERPQFVNSVNMREINLRGQKIPVIENMGVTRDQFDVIDLTDNDIRKLDNFPTFSRLNTLYLHNNRINYIAPDIATKLPNLKTLALTNNNICELGDIEPLAECKKLEYVTFIGNPITHKDNYRMYMIYKLPTVRVIDFNRVRLTEREAAKKMFKGKSGKKARDAIQKSVHTEDPSEIEPNENSSGGGARLTDEDREKIKEAIKNAKSLSEVNYLQSILASGKVPEKGWNRQMDQNGADGEAMES	not soluble
MGSDKIHHHHHHMKKKTTTVYVDKQYKLTRDVAPLSFMLPIKHSRRFPLLHFDESTGTNRELRYARNQKSPFVDKQDGNALLEPVIFEDGFLFVKKENQVLQQFLHYHPLNGTKFVEVDKSKDAAQVVDQLMIEADALVEAKKLSLEQLENVCRVLFNTNVDKLTTAEMKRDVLVFAKNNPQDFLDICSDPELKIMGMVQSFFDKGHLAYRKSKKEVWYNTPTNKTKMLNVPFGADGLDLVVSYLQSDEGIDVLKHLETL	not soluble
MSLEAVIFDMDGVLMDTEPLYFEAYRRVAESYGKPYTEDLHRRIMGVPEREGLPILMEALEIKDSLENFKKRVHEEKKRVFSELLKENPGVREALEFVKSKRIKLALATSTPQREALERLRRLDLEKYFDVMVFGDQVKNGKPDPEIYLLVLERLNVVPEKVVVFEDSKSGVEAAKSAGIERIYGVVHSLNDGKALLEAGAVALVKPEEILNVLKEVLEGHHHHHH	soluble
LSNTRVQSRTAKVGYQAGVAINLKTSDYFSIRPEVLYNIMGGDTQYGDDEGNTKVLKNRYDYLSIPLNFVATFEAGPGKINVFVAPQFSLGLGGKYTSNTDSSAVGFFGVRRREDRSGTLQTSDVPDNYTGTNKYFNQINWGINYGVGYQVKGLLFTGQYHMGLSNNEPHYSNPDQEAHRGNVVTKNYGFTVGLTYFFGDTK	not soluble
MGSDKIHHHHHHMKIAVVGAGLTGLKTAKELAEHAKVVVFEPDDVGGLVATFREFSIEKFYHHCFRDDAFLLEEIKRCGLKSKLVWKIAKTGFAANGKIYPLNTPFEILRYPLLTFGEKIRLARFTLKSRKLNYEDFDDVGVSEGIREELGEGLLERFFMPLLRSKFGENAEKVSYAWLLGRVAIRSNRKYSGEEIGYIRHGFQQLVDKMAEGLEIRRERARIRKNARWDVNGEDFDAVVYTAPLSELGELAEKLGIPEVRYQSSVCALIGAEETLTENIYWTNIADKMSFGAVIEHTNFMPFEDYGIHLMYLAAYSTPDGWLFNLSDKEIEKLFLSDLRKLGFKTESVRFVRVFKAKYSGPIYEKGYRRKITPYRVAEGFYVAGMTSRPNYPERSMNGSIRAGKEVAEQVKEDLL	not soluble
EEIFCHVYITEHSYVSVKAKVSSIAQEILKVVAEKIQYAEEDLALVAITFSGEKHELQPNDLVISKSLEASGRIYVYRKDLADTLNPFAEN	soluble
MSCIAAIAAAEGTGSRMAYVSLPRRLVTLLMISTVMVSCSAEGLVPPAEVDGTTRVSAIRSSRQQGYSAPSGAVNQVERAGQGADYPSTMSQPMPEPYASQDPLLQSPQAGQGYSTLDSQHQARMAASGHTNMPAQPMQSQTMQSQTMQAQTMQAQTMPGQQLASNQNAEGEGGVNMDSMLGVEPVRGLAEEQDADIAEGASAQPVVDGIGTDNPVAVSPPRRQQGASQSRLIPPPPVGSSSRRQPVEEVAMLMPNDPMAGGPMQSNRSMPPGVMPSSEVACRSELRRLGVAFRDVARIADGPTCGIDYPIELSGLASGVAIRPAVKLNCQVTLAFAKWVKFELVPSSRFRYLSGVGRITPMGGYSCRKMNSRSSNPWSEHARGNAIDIGTITLKNGKEIDVRSKSFFAFREKALLKAVRSDSCKYFSTVLGPGSDPNHWNHFHFDLRTRKSGYRHCD	not soluble
GAMQGEVSKAASADSTTEGTPADGFTVLSTKSLFLGQKLQVVQADIASIDSDAVVHPTNTDFYIGGEVGNTLEKKGGKEFVEAVLELRKKNGPLEVAGAAVSAGHGLPAKFVIHCNSPVWGADKCEELLEKTVKNCLALADDKKLKSIAFPSIGSGRNGFPKQTAAQLILKAISSYFVSTMSSSIKTVYFVLFDSESIGIYVQEMAKLDAN	soluble
MEPMHKINKVEVRNLQIEDYIQLSQSFKRVYADKDVFWTHEQIETLIRIFPEGQVVTVVDDKIVGCALSIIVDYDMVKGDHTYAKVTGNETFCTHNPEGNILYGIEVFIHPDYRGLRLARRMYEYRKELCEKLNLKAIMFGGRIPNYYKYADTMRPKEYLDKVRSREIYDPVLTFQLSNDFHVRRVMKNYLP	not soluble
MAVRPVLAVGSYLPHAPWPWGVIDQAARVLLPASTTVRAAVSLPNASAQLVRASGVLPADGTRRAVLYLHGGAFLTCGANSHGRLVELLSKFADSPVLVVDYRLIPKHSIGMALDDCHDGYRWLRLLGYEPEQIVLAGDSAGGYLALALAQRLQEVGEEPAALVAISPLLQLAKEHKQAHPNIKTDAMFPARAFDALDALVASAAARNQVDGEPEELYEPLEHITPGLPRTLIHVSGSEVLLHDAQLAAAKLAAAGVPAEVRVWPGQVHDFQVAASMLPEAIRSLRQIGEYIREATG	soluble
MSLTQGSVIFTQNRPGLDEKIFKIYKFKTMSDERDEKGELLSDELRLKAFGKIVRSLSLDELLQLFNVLKGDMSFVGPRPLLVEYLPLYNKEQKLRHKVRPGITGWAQVNGRNAISWQKKFELDVYYVKNISFLLDLKIMFLTALKVLKRSGVSKEGHVTTEKFNGKNEGHHHHHH	not soluble
MGSDKIHHHHHHMAANRFNGFTDYGIGIGLRIPHYRHILDNKPVVDWFEIISENYMIDGGRPLAVLDAILEQYRVVQHGVSMYFGSVDPLNREHLKRLKNLTRRTKTPWLTDHLCWGSVDGRYTHDLMPLPYTWEAIDVTVAKIKQVRDYLEIPVAVENVSSYAEFHESEMTEWEFLNEVVERADCGILLDVNNIYVSSMNHSFDPHVYVDSVPAERVAQIHIAGHSKYEKYILDTHDHPVIDPVWQLYAHAIRRCGPTATLLEWDDHIPSFEEVHNEALKAKKFLAENAEPVEKKIAAAEARV	not soluble
QTPVYLDTSKPIEERVKDALSRMTLEEKVKMTHAQSKFSSPGVPRLGIPEVWATDGPHGIRPEVLWDEWDQAGWTNDSCIAYPALTCLSATWNPEMSYLYGKSIGEEARYRKKDILLGPGVNIYRTPLNGRNFEYMGEDPYLSSMMVVPYIKGVQENGVAACVKHYALNNQEFNRHTTNVHLSDRALYEIYLPAFKAAVQEGGAWAIMGAYNLYSFSEDTDSGKLYKTQHACHNKRLLQDILRKEWGFDGVVVSDWGGVHDTFQAISNGLDMEFGSWTNGLSAGTRNAYDNYYLAHPYLKLIQDGTVGTKELDEKVSNILRLIFRTSMNPH	not soluble
MARRISSQGKVTISVDEYSSNPTQAFTHYNINQSRFQPPHVHMVEPLPYDAPKSVGHTRFVCVSDTHSRTDGIQMPFGDVLLHTGDFTELGLPSEVKKFNDWLGGLPYEYKVVIAGNHELTFDKDFMAELIKQDYYRFPSVSKLRSEDFDDVQSLLTNCVYLQDSEVTIKGFRIYGAPWTPWFNGWGFNLPRGQSLLDKWNQIPEDVDILMTHGPPLGFRDWVPKELQRVGCVELLNTVQKRVRPKLHAYGGIHEGYGIMTDGYTTFINSSTCTVSFQPTNPPIIFDLPNPGNS	not soluble
